Reference: the RNAGym collection of RNA variant scans (doi:10.7554/elife.90254)

B1: OR4K15 (parent)
chain: GUUAACGGUCAUAGGCCAUGGAAACUAGGAGCACCAUUUCGCUGCCAGUGAAGAAAUGAACAAAGAAAAUCUGGGCCAGGCAGGCAUCAAAAGAAAUAGUCUUGCGCUCAACCAGAAAGUCUGUAAUCAUUUUAAGGGUA

Variants of: B1
Test: self-cleavage, relative activity (ratio to wild type); higher = more cleavage; in vitro, sequencing; the parent is a self-cleaving ribozyme

In order of falling self-cleavage:
1. A36G A86U  2.91
2. A36C U87A  2.59
3. A36G A66U  2.4
4. C34U A69U  2.37
5. A36C A51U  2.34
6. A36C A135G  2.33
7. A33U A62U  2.26
8. A33U U49G  2.25
9. A33G U100C  2.23
10. A36C A64G  2.21
11. A36G A89U  2.21
12. A33U A140G  2.18
13. A36C U130C  2.1
14. C35A U43A  2.06
15. A36G A68G  2.06
16. A33U U87A  2.04
17. A36G A98C  2.03
18. A36C A62G  2
19. C34G  1.98
20. A36G A62G  1.94
21. A33U C35U  1.93
22. C34U A67U  1.92
23. C34U A117G  1.91
24. C34U G123A  1.87
25. A36G A67U  1.85
26. A33U U100C  1.84
27. A33U A55G  1.84
28. A33U U131C  1.83
29. A36C A91G  1.81
30. A33U C34A  1.81
31. C34U A68G  1.8
32. C35U A95G  1.74
33. A33U U87C  1.74
34. A36G A67G  1.7
35. A33U A47G  1.68
36. A33U A126U  1.67
37. A36C U132C  1.67
38. C34U G44A  1.66
39. C34A A89G  1.66
40. A33U A95G  1.66
41. A36G A68U  1.65
42. C34U U87C  1.63
43. C34A A89U  1.63
44. A33U A66U  1.62
45. C34U U139A  1.61
46. C34U A54G  1.6
47. C35A C61U  1.59
48. C35G A59G  1.58
49. A33U A56G  1.57
50. A33U A116G  1.55
51. C34U A94G  1.55
52. A36G A90G  1.54
53. A33U A98G  1.53
54. A36C  1.52
55. A33U A62G  1.52
56. A36C U127C  1.51
57. C34U U43C  1.48
58. A36C A69C  1.47
59. A36C G41U  1.47
60. A36C U103C  1.44
61. A33U G48A  1.42
62. A33U A129U  1.42
63. A33U A126G  1.4
64. A33U U39A  1.4
65. A36G  1.39
66. C34A A60G  1.39
67. A33U A60G  1.38
68. C35U A92U  1.37
69. C34U  1.35
70. C34A U57C  1.31
71. A36G A56G  1.3
72. C34U A60G  1.29
73. C34A A52G  1.28
74. A36G A60G  1.28
75. A33U A68G  1.28
76. A33U A59G  1.28
77. A36C U49C  1.28
78. C35A A129G  1.27
79. C35U U122A  1.26
80. A36C U43C  1.24
81. C35U A134G  1.23
82. A33U U124C  1.22
83. A33U A134G  1.2
84. C35U A91G  1.19
85. C34U A36U  1.19
86. A36C A126G  1.17
87. A36G A90C  1.15
88. A36G A96G  1.13
89. C34A  1.12
90. C35U A69G  1.1
91. A33G U130A  1.1
92. A36C U131C  1.1
93. A33U G99A  1.09
94. C35U U122C  1.07
95. A33U A90G  1.06
96. C35U A51G  1.06
97. A36C U87C  1.04
98. A33U A129G  1.03
99. A36G A86G  1.01
100. A33U C77A  1
101. C35U U87C  1
102. A33U U127C  1
103. A33U U70C  1
104. C35U A118G  0.99
105. A36G A92U  0.99
106. C34U A64G  0.98
107. C35U U70A  0.97
108. C35A A36U  0.97
109. A36G A54G  0.96
110. A33U U139A  0.95
111. A33U A51U  0.89
112. A33U A82G  0.88
113. C35U A96G  0.88
114. A33G U133C  0.88
115. C34U A52G  0.85
116. A33U U103C  0.84
117. A33U A47U  0.84
118. A33G U132C  0.83
119. C35A A116G  0.83
120. C34A U122C  0.77
121. A33U A54G  0.76
122. C34A A82G  0.76
123. C34U A90G  0.74
124. A33G U87C  0.7
125. C35U A86G  0.68
126. A33G U130C  0.66
127. A33G U120G  0.65
128. C35U A94G  0.64
129. A33U A114G  0.64
130. C34U A125G  0.63
131. A33G U131C  0.63
132. C35U U43A  0.61
133. A33G U122A  0.6
134. C35U U57A  0.59
135. C35U U70C  0.58
136. C35U U131C  0.58
137. C35U A62G  0.56
138. C34U A116G  0.54
139. A36G A82G  0.53
140. A33G U132A  0.51
141. A33G U102G  0.47
142. A33G U103A  0.46
143. C35U U38A  0.41
144. C34U C105U  0.4
145. A33G U103C  0.4
146. A36C A78C  0.32
147. A33U U72C  0.3
148. C35U U103C  0.29
149. A33U A78G  0.29
150. A33U C81U  0.27
151. C35U C71U  0.22
152. C34U C101A  0.21
153. C34U A96C  0.19
154. C34U A110G  0.19
155. A33U C76G  0.17
156. A33U A96G  0.16
157. C35U A110G  0.14
158. A36G A82U  0.1
159. A33U A114U  0.08
160. A36G A78G  0.07
161. C35U A111U  0.05
162. C35U A111G  0.05
163. C34U A111G  0.04
164. A36C G104A  0.03
165. A33U A111G  0.03
166. C35U U108A  0.02
167. A36C A111G  0.02
